The target in data set [1] is BPV-1 E1 helicase domain (E1HD), residues 299-605 (bovine papillomavirus (BPV-1)) (UniProt P03116). Briefly: SEC.
In data set [2] the target is T1, E1HD (E1 helicase domain) (bovine papillomavirus BPV-1, UniProt P03116 299-605). In words: gel filtration. For orientation: Size exclusion chromatography separates by hydrodynamic size, large species first.
The target of data set [3] is T1, E1HD (E1 helicase domain). In words: EMSA.

This note sets out measurements from paper PMC3300016.

T1 sequence (P03116 299-605): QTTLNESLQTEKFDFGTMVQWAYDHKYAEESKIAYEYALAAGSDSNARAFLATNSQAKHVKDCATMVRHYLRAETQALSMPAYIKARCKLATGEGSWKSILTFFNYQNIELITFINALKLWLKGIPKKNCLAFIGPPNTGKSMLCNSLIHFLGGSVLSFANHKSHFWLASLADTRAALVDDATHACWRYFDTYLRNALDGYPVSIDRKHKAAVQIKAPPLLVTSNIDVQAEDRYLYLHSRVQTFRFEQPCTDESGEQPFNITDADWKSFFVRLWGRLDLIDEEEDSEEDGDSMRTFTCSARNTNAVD

One may read the stoichiometry N as the number of molecules, sites or subunits per partner or assembly. Turning to “BPV-1 E1 helicase domain (E1HD), residues 299-605 (from UniProt P03116 299-605) (domain or fragment)”, in data set [1], the stoichiometry N is 6.

B1: T18 (ssDNA)
DNA: TTTTTTTTTTTTTTTTTT
On to B1, for which the binding result in data set [2] was “binds”.

B2: T30 (ssDNA)
DNA: TTTTTTTTTTTTTTTTTTTTTTTTTTTTTT
In the case of B2, in data set [3], the binding result is reported as “binds”.
